Values joined by “and” are separate entries in the source; they are usually repeats but may differ in a detail not shown here. Equal values may be shown once.
How the values were obtained:
[1] = molecular target: the molecule itself; experiment: […], sodium citrate 20 mM pH 4.0, […]
[2] = molecular target: the molecule itself; experiment: static light scattering + SEC

B1: Full-length Ovine PrP 23-234 (Ala-136, Arg-154, Gln-171 variant) (natural protein)
chain: not shown
notes: also called OvPrP; ARQ PrP
- stoichiometry N [1]: 25 to 70 mer
- koff [2]: 0.00403 s⁻¹ and 0.0038 s⁻¹ and 0.01 s⁻¹

— publication PMC5528842, “The mechanism of monomer transfer between two structurally distinct PrP oligomers” (PLoS ONE, 2017)
